System: MS2 coat protein
Assay: apparent KD of MS2 coat protein; designed switch direction (-1 OFF switch, 1 ON switch): 1; higher = weaker reporter binding
Outline: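 Stalled E. coli RNA polymerase transcribed designed RNA switches on Illumina chips, which were then titrated with SNAP-549-labelled MS2 coat protein, doubling from 0.7 or 1.5 nM to 3 µM. Steps lasted from 0.8–1.5 h at the lowest concentration to 10–20 min at the highest. The apparent KD is each design's median over clusters of curve-fitted normalised fluorescence.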

[1] = Eterna round: R95, input ligand: FMN 200 uM
[2] = Eterna round: R95, input ligand: microRNA oligo, concentration not stated
[3] = Eterna round: R95, input ligand: none
[4] = input ligand: microRNA oligo, concentration not stated

With “UAUAAACAUGAGGAUCACCCAUGUAAUAAUAUGGGAGGAUAUCAGAAUGUAUUUAUUUAAUGAGAAGGCCUAAUAU [Mat - Same State 1 - Mod of Eli - D68] (puzzle: Same State 1)” the “apparent KD of MS2 coat protein” value [1] was 46.4 nM, the “apparent KD of MS2 coat protein” value [2] was 532 nM and the “apparent KD of MS2 coat protein” value [3] was 645 nM.

In the case of “UUAGAAUUGCAAGGAUAUCUAAUUUAGAUAGUAAGAGAAGGUGCUUGAUAGUUACAUGAGGAUCACCCAUGUUUUUGGGUUUAU [JR_SSNG1_Sub058] (Eterna round: R96, puzzle: Same State NG 1)”, the “apparent KD of MS2 coat protein” value [4] was 416 nM.

For “UGGUACAUGGGAGGAUAUCUCAUGGAGACAUGAGGAUCACCCAUGUAGUAGGACCGGAAACGGUGAGAGAAGGCCCAUGUACCU [JL SSNG1 3.73] (Eterna round: R96, puzzle: Same State NG 2)”, the “apparent KD of MS2 coat protein” value (input ligand: FMN 200 uM) was 26.6 nM, the “apparent KD of MS2 coat protein” value [4] was 40.5 nM and the “apparent KD of MS2 coat protein” value (input ligand: none) was 51.5 nM.

For “UUCUCCUUUUUUUACAUGAGGAUCACCCAUGUUUUUCUUACGUAGGAUAUCGUUGUUUUUUUUUACGAGAAGGACGUAGUAAGU [JR_SSND3_Sub060] (Eterna round: R96, puzzle: Same State NG 3)”, the “apparent KD of MS2 coat protein” value (input ligand: FMN 200 uM) was 31.5 nM, the “apparent KD of MS2 coat protein” value [4] was 25.8 nM and the “apparent KD of MS2 coat protein” value (input ligand: none) was 36.2 nM.

In the case of “GCGAAAGCCGUAGGAUAUGUAGGAUAUGGCGAGAGCUAAGCUUGGAAGUCACUUCAGCCAGAAGGACAGAAGGACGCCGAAAGG [pwkr ssNG2 2FMN + F9.15] (Eterna round: R96, puzzle: Same State NG 2)”, the “apparent KD of MS2 coat protein” value (input ligand: FMN 200 uM) was 1410 nM, the “apparent KD of MS2 coat protein” value [4] was 387 nM and the “apparent KD of MS2 coat protein” value (input ligand: none) was 46.2 nM.

With “GGUCCAGCCUGAGCUGGACAAAAGCAUGUACAUGAGGAUCACCCAUGUUCAUGUACAAGCUUUUUGCUCGUCUUAUG [salish99_208a_r3_053] (puzzle: Sensor for hsa-mir-208a)” the “apparent KD of MS2 coat protein” value [1] was 693 nM, the “apparent KD of MS2 coat protein” value [2] was 18.1 nM and the “apparent KD of MS2 coat protein” value [3] was 785 nM.

With “GGAGCCGGCACCGAGGAUAUUCAUAUUAAAACAUGAGGAUCACCCAUGUAGGCCAGAAGGCUUUGGGAGAAGGCGGAUCGGCUCG [Xeonanis - 3] (Eterna round: R96, puzzle: Same State 2)” the “apparent KD of MS2 coat protein” value (input ligand: FMN 200 uM) was 22.1 nM, the “apparent KD of MS2 coat protein” value [4] was 148 nM and the “apparent KD of MS2 coat protein” value (input ligand: none) was 568 nM.

In the case of “GGUCGGACUCACAUGAGGAUCACCCAUGUUGCGGAAACGCGGCAGGAUAUCUGUCCGAAAAGGUCAGAGAAGGGUCAACCGACC [Fiskers NG3ss - 62] (Eterna round: R96, puzzle: Same State NG 3)”, the “apparent KD of MS2 coat protein” value (input ligand: FMN 200 uM) was 644 nM, the “apparent KD of MS2 coat protein” value [4] was 141 nM and the “apparent KD of MS2 coat protein” value (input ligand: none) was 199 nM.

With “GUUACAUGAGGAUCACCCAUGUGUGUGUGGGAGUGAGUGGCUUAGGAUAUCUAUGAUUUUAGUUGAGAGAAGGAGGAUUGCUGU [SS-NG3-LRO08] (Eterna round: R96, puzzle: Same State NG 3)” the “apparent KD of MS2 coat protein” value (input ligand: FMN 200 uM) was 439 nM, the “apparent KD of MS2 coat protein” value [4] was 158 nM and the “apparent KD of MS2 coat protein” value (input ligand: none) was 347 nM.

With “GUGCUCGUGUGAGGAUAUGCUUCCGUUUCGGCUGCAGAAGGUACUAUUAUACAUGAGGAUCACCCAUGUCUCUUUUGUUCGGUG [salish99_SSNG1_r04_911] (Eterna round: R96, puzzle: Same State NG 1)” the “apparent KD of MS2 coat protein” value (input ligand: FMN 200 uM) was 66.9 nM, the “apparent KD of MS2 coat protein” value [4] was 38.2 nM and the “apparent KD of MS2 coat protein” value (input ligand: none) was 58.8 nM.

“UUAAUUAUGUAAGGAUAUACAUGAGGAUUUCUCGUAGAAGGUACAUUACAUGAGGAUCACCCAUGUGGGUGUCCGUAGACGCCA [JL SSNG1 1.06] (Eterna round: R96, puzzle: Same State NG 1)” was tested, and the “apparent KD of MS2 coat protein” value [4] was 475 nM.

With “UGGCUCAGAGCAGGAUAUAUGUCUCGAGCUUCGGCUCGAGACAUGAGGAUCACCCAUGUAAUAACAUAGAAGGGCUCUGAGCCU [SSNG2/1-B3] (Eterna round: R96, puzzle: Same State NG 2)” the “apparent KD of MS2 coat protein” value (input ligand: FMN 200 uM) was 15.8 nM, the “apparent KD of MS2 coat protein” value [4] was 42 nM and the “apparent KD of MS2 coat protein” value (input ligand: none) was 53.3 nM.

With “UAAGGACAUGAGGAUCACCCAUGUGCUUCAUAUGGAGAAUCUCAGGAUAUCCUGAGGAUCACCCAGGAGAAGGGAGAUCCGAGG (Eterna round: R96, puzzle: Same State NG 3)” the “apparent KD of MS2 coat protein” value (input ligand: FMN 200 uM) was 288 nM, the “apparent KD of MS2 coat protein” value [4] was 191 nM and the “apparent KD of MS2 coat protein” value (input ligand: none) was 225 nM.

In the case of “GUAGCAUACCGAGGAUAUUCAUAAACAUGAGGAUCACCCAUGUAGGCCAGCAUUAGCUGGCCUUGGGAGAAGGCGGAAUGCUAC [Xeonanis - 20 Mod51] (Eterna round: R96, puzzle: Same State NG 2)”, the “apparent KD of MS2 coat protein” value (input ligand: FMN 200 uM) was 17.4 nM, the “apparent KD of MS2 coat protein” value [4] was 53.9 nM and the “apparent KD of MS2 coat protein” value (input ligand: none) was 77.4 nM.

With “GUGUUACAUGAGGAUCACCCAUGUUGUUGUAGAUAAGGAUAUAUGGGAACGAGAGAAAUAAUAGAAGGUAUUAGGC [JR_SS1_Sub060] (puzzle: Same State 1)” the “apparent KD of MS2 coat protein” value [2] was 77.4 nM.

“GCCGGCUGGUGAGGAUAUGGCGCCUUAUUGGUGCCAGAAGGCAUGUCAAUUGACAUGAGGAUCACCCAUGUGUUGUCGUUGGCG [salish99_SSNG1_r04_610] (Eterna round: R96, puzzle: Same State NG 1)” was tested, and the “apparent KD of MS2 coat protein” value (input ligand: FMN 200 uM) was 695 nM, the “apparent KD of MS2 coat protein” value [4] was 357 nM and the “apparent KD of MS2 coat protein” value (input ligand: none) was 353 nM.

With “UUAACAUGAGGAUCACCCAUGUAUACGUAGUUUGCAUUUUGACAGGAUAUUGUUUAUCUAUAUAGCAAGAAGGGUCGUUAGUCU [JR_SSNG3_Sub009] (Eterna round: R96, puzzle: Same State NG 3)” the “apparent KD of MS2 coat protein” value (input ligand: FMN 200 uM) was 27 nM, the “apparent KD of MS2 coat protein” value [4] was 31.8 nM and the “apparent KD of MS2 coat protein” value (input ligand: none) was 41.9 nM.

In the case of “GCGCAGCCGGGUGAGGAUAUCGGUGGUAAAACAUGAGGAUCACCCAUGUCCGAAGCUCGGACUUCCGAGAAGGCGCCCAGCUGCA [Erisin] (puzzle: Same State 2)”, the “apparent KD of MS2 coat protein” value [2] was 61.2 nM.

With “AUCAAAACAAGUUGCAGUGUUCGUCUUUCACAUGAGGAUCACCCAUGUAAUAGCCCAGCGGAAGCACUCGGGCCACC [Arzasola] (puzzle: Sensor for hsa-mir-208a)” the “apparent KD of MS2 coat protein” value [1] was 26.8 nM, the “apparent KD of MS2 coat protein” value [2] was 28.1 nM and the “apparent KD of MS2 coat protein” value [3] was 31.2 nM.

With “GAGUAGUUGAAAGGAUAUAGAUUGUUGUAGGAUCUAGAAGGUUCUAACAUGAGGAUCACCCAUGUAGGACUAUUCCUGUGUAUC [Parity 87 - Jieux - Same State NG 1] (Eterna round: R96, puzzle: Same State NG 1)” the “apparent KD of MS2 coat protein” value (input ligand: FMN 200 uM) was 11.5 nM, the “apparent KD of MS2 coat protein” value [4] was 8.94 nM and the “apparent KD of MS2 coat protein” value (input ligand: none) was 13.1 nM.

For “GGUAUCAGCACAGGAUAUGCUAUCCUUUGGGUAGCAGAAGGGUGGACAUGAGGAUCACCCAUGUGGGUGCCAGGGCGUGAGCCC [JL SSNG1 1.86] (Eterna round: R96, puzzle: Same State NG 1)”, the “apparent KD of MS2 coat protein” value (input ligand: FMN 200 uM) was 426 nM, the “apparent KD of MS2 coat protein” value [4] was 75.9 nM and the “apparent KD of MS2 coat protein” value (input ligand: none) was 323 nM.

For “GUAGCAUACCGAGGAUAUUCUACAUGAGGAUCACCCAUGUUUAAUAGGCCACAUUAGUGGCCUUGGGAGAAGGCGGAAUGCUAC [Xeonanis - 20 Mod47] (Eterna round: R96, puzzle: Same State NG 2)”, the “apparent KD of MS2 coat protein” value (input ligand: FMN 200 uM) was 13.6 nM, the “apparent KD of MS2 coat protein” value [4] was 12.7 nM and the “apparent KD of MS2 coat protein” value (input ligand: none) was 19.8 nM.

In the case of “GUACUCAUGUAAGGAUAUGCAGCCGUUUCGGCUGCAGAAGGUACUAUAAUACAUGAGGAUCACCCAUGUCUCUAUAAUUUAGUG [salish99_SSNG1_r04_901] (Eterna round: R96, puzzle: Same State NG 1)”, the “apparent KD of MS2 coat protein” value (input ligand: FMN 200 uM) was 70.6 nM, the “apparent KD of MS2 coat protein” value [4] was 34.5 nM and the “apparent KD of MS2 coat protein” value (input ligand: none) was 49 nM.

In the case of “CGACGCUGUCGAGAGGAUAUGCGGUGAUGGACAUGAGGAUCACCCAUGUUAGCGAUAGCAUUACGGUAGAAGGCUCUACAGCUGU [Soteed Omei mod 5] (puzzle: Same State 2)”, the “apparent KD of MS2 coat protein” value [1] was 20.4 nM, the “apparent KD of MS2 coat protein” value [2] was 202 nM and the “apparent KD of MS2 coat protein” value [3] was 118 nM.

“CGGGACAGACCCAACAUGAGGAUCACCCAUGUCCUCGCAGGUCAGGAUAUUAUUAGGAUCACCAGUGAGAAGGGACGGUGAACC (Eterna round: R96, puzzle: Same State NG 3)” was tested, and the “apparent KD of MS2 coat protein” value (input ligand: FMN 200 uM) was 470 nM, the “apparent KD of MS2 coat protein” value [4] was 281 nM and the “apparent KD of MS2 coat protein” value (input ligand: none) was 373 nM.

In the case of “UUAGCGACGGAAGGAUAUUGGACGCUAACAUGAGGAUCACCCAUGUAGAGGUCCUACCAACAGCGCAAGAAGGUCCGAUCAGCA [Eternabot solution 13] (Eterna round: R96, puzzle: Same State NG 2)”, the “apparent KD of MS2 coat protein” value (input ligand: FMN 200 uM) was 22.7 nM, the “apparent KD of MS2 coat protein” value [4] was 8.94 nM and the “apparent KD of MS2 coat protein” value (input ligand: none) was 13.3 nM.

For “GUGUGUUGCGGGCAGGAUAUGUACUUGAGUACAUGAGGAUCACCCAUGUGCGGGUGUUUCACCCGACAGAAGGGCCUAUCGCGAC [JL-ss2-3.25 ViennaUCT mod] (Eterna round: R96, puzzle: Same State 2)”, the “apparent KD of MS2 coat protein” value (input ligand: FMN 200 uM) was 252 nM, the “apparent KD of MS2 coat protein” value [4] was 457 nM and the “apparent KD of MS2 coat protein” value (input ligand: none) was 1070 nM.

For “GGUAUUAACACAGGAUAUGCUUACGAAACGUAAGCAGAAGGGUGGACAUGAGGAUCACCCAUGUUUGUACCAGGGCGUGAGCCC [JL SSNG1 1.71] (Eterna round: R96, puzzle: Same State NG 1)”, the “apparent KD of MS2 coat protein” value (input ligand: FMN 200 uM) was 68.5 nM, the “apparent KD of MS2 coat protein” value [4] was 271 nM and the “apparent KD of MS2 coat protein” value (input ligand: none) was 652 nM.

Source: the supplement of paper PMC9170038
